Key:
[1] = target: T1, glucose-regulated protein (GRP78) (Homo sapiens, UniProt P11021 19-654); test: cell ELISA on endothelial cells, peptide 2 hours, then competitor anti-GRP78 antibody at 2 ug/ml
T1 construct: Endogenous GRP78: on the membrane of human umbilical vein endothelial cells (HUVEC) or tumor cell lines in FACS and cell ELISA; from HUVEC lysate in the immunoprecipitation and Western blot experiments; also called GRP78 receptor; ADOPeps receptor
Description: Endothelial cells were incubated for 2 hours with increasing concentrations of ADOPeps, following which the cells were incubated for another 1 hour with the 2 μg/ml of anti-GRP78 antibody and the amount of bound antibody on EC was detected using an ELISA reader.
Endothelial cells (20,000 per well) were seeded in 96 well plates for 24 hours in the presence of the complete medium. Plates were washed with PBS over night and rehydrated with PBS, 0.1% Na Azide and 5% FCS. ADOPep1, ADOPep2 and ADOPep3 were added to washed plates for 2 hours at room temperature at concentrations of 0.01, 0.1 and 1 microgram per ml. Anti-GRP78 antibody (goat polyclona IgG, Santa Cruz Biotechnology, Calif., USA) was added to the plates for 1 hour at room temperature at a concentration of 2 micrograms/ml per well. After washing, bound anti-GRP78 antibody was detected by incubation with anti-goat IgG Peroxidase conjugated (Jackson Immuneresearch Laboratories, PA, USA). After 5 washes with PBS-0.1% Tween 20, 100 μl/well of TMB+ Substrate-Chromogen (DAKOCytomation, CA, USA) was added for a maximum of 30 minutes. Reaction was stopped with 1N HCl. Color developed was determined by an ELISA reader at 450 nm.

[2] = target: T1, glucose-regulated protein (GRP78); test: endothelial cells, normoxia, peptide at 0.01, 0.1 or 1 ng/ml for 2 hours, then competitor biotinylated ADOPep1 at 2 ug/ml, HRP-streptavidin
Description: Endothelial cells were incubated for 2 hours under normoxia conditions in the presence of increasing concentrations (0.01, 0.1 or 1 ng/ml) of peptides having the amino acid sequences corresponding to Motif A (HWRRP; SEQ ID NO:7), Motif B (HWRRA; SEQ ID NO:8), Motif C (AHLLP; SEQ ID NO:6) or non-biotinylated ADOPep1 (SEQ ID NO:2) and then were incubated for 1 hour with biotinylated ADOPep1 (2 μg/ml) and the binding of biotinylated ADOPep1 to endothelial cells was determined using HRP-streptavidin.

T1 sequence (P11021 19-654 limits assumed): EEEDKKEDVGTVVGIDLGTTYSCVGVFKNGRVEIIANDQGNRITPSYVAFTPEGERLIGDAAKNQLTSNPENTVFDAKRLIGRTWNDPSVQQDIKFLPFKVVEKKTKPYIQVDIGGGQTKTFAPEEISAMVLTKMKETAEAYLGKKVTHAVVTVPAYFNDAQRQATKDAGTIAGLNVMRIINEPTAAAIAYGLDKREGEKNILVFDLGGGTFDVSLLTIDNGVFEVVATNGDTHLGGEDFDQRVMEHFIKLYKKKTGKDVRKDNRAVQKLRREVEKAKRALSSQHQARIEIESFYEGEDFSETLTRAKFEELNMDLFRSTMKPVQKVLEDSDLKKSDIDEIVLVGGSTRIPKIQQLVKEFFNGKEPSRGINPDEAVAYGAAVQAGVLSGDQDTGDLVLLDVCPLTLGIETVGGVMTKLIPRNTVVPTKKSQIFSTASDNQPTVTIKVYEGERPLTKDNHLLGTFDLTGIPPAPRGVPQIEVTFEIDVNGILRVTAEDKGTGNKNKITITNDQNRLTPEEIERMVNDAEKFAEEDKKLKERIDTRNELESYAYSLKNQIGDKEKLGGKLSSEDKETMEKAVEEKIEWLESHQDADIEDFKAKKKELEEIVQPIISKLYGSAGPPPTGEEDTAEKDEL

Row | Binder | percent inhibition of binding of anti-GRP78 antibody [1] [%] | binding result [2]
1 | HWRRAHLLPRLP (Unlabelled synthetic peptide (SynPep); also called non-biotinylated ADOPep1) [ADOPep1] | ≤ 50 | 
2 | AVTLENFLHWRR [ADOPep3] | ≤ 50 | 
3 | ENFLHWRRAHLL [ADOPep2] | ≤ 50 | 
4 | HWRRA (also called peptide motif B) [Motif B peptide (HWRRA)] |  | binds

From patent US20120219498A1 (RAMOT AT TEL AVIV UNIVERSITY, published 2012)
